# From publication PMC7324161, “Synergy between SIRT1 and SIRT6 helps recognize DNA breaks and potentiates the DNA damage response and repair in humans and mice” (eLife, 2020)
# Where no end group is shown, it is not given here. [ ]: non-standard residue; d: D form. The star is where a group is joined. Biotin = O=C1N[C@H]2[C@H](CS[C@H]2CCCCC(=O)*)N1; pS = N[C@@H](COP(=O)(O)O)C(=O)O
# B1: biotin-labeled C-terminal γH2AX peptide (peptide)
# peptide: Biotin-GKKATQA[pS]QEY
# notes: C terminus of H2AX, printed as BGKKATQApSQEY; also called biotin-γH2AXp; source: synthetic peptide (GL Biochem, Shanghai)
# Columns and labels:
# GST-SIRT6 K33R (human) = assay: fluorescence polarization; conditions: Pull-down: 10 mM Tris-Cl pH 7.5, 100 mM NaCl, 0.01% NP40, 10% glycerol, 4 C overnight, 10 pmol DNA and 0.5 ug protein in 300 ul; FP buffer not in material
# GST-SIRT6 WT (human) = assay: fluorescence polarization; conditions: 20 nM FAM-DNA; Pull-down: 10 mM Tris-Cl pH 7.5, 100 mM NaCl, 0.01% NP40, 10% glycerol, 4 C overnight, 10 pmol DNA and 0.5 ug protein in 300 ul; FP buffer not in material
# GST-SIRT6 K33R = biological target: T1, GST-SIRT6 K33R (human, UniProt Q8N6T7 1-355, K33R); assay: pull-down; 1 μg biotinylated peptide with 1 μg GST-SIRT6 in 50 mM Tris-HCl, 200 mM NaCl, 0.05% NP40 overnight at 4°C; Streptavidin Sepharose beads 1 hr at 4°C; western blot; conditions: both partners purified
# T1 construct: SIRT6, human, lysine 33 to arginine, as GST fusion
# T1 sequence (Q8N6T7 whole entry K33R, the tested form may be a part): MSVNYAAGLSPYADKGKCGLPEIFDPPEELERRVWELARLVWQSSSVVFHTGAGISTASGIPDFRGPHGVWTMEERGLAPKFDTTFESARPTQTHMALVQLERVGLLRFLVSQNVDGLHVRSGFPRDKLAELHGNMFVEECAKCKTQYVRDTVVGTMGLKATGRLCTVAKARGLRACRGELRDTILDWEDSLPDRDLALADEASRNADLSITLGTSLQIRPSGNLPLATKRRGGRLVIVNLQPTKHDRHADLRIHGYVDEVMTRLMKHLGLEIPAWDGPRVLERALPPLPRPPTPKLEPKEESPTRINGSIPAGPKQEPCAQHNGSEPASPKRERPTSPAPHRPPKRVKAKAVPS
Molecule,Kd (GST-SIRT6 K33R (human)) [nM],Kd (GST-SIRT6 WT (human)) [nM],binding result (GST-SIRT6 K33R)
FAM-labeled DNA duplex,105,166,–
B1,–,–,binds
